Experiments:
Assay type in all cases: cell-based
CD14-TLR4 = molecular target: T1, CD14-TLR4 (Homo sapiens, UniProt P08571); experiment: Reporter gene assay, NIH3T3 cells transfected with CD14 and TLR4, LPS-mediated activation; settings: FIG. 6I
T1 construct: expressed in transfected cells; host or cells: NIH3T3
T1 sequence (P08571 20-345 limits assumed): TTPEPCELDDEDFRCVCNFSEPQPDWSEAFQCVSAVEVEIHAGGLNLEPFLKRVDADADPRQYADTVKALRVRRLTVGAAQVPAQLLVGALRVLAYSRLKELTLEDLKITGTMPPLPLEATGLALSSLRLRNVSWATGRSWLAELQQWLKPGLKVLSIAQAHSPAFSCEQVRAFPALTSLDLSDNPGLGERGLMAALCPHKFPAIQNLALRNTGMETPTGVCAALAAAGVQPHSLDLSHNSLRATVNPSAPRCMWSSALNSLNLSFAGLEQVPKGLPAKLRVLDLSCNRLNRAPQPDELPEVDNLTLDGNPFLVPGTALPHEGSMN
Source text: FIGS. 6A-6V present peptide activity using NIH3T3 cells that express TLR4, with either the MD2 co-receptor (top) or CD14 co-receptor (bottom), for peptides of SEQ ID Nos. 1-22, respectively, according to some embodiments of the invention. FIGS. 6A-6V show the dose response inhibitor/activator effects of the designed peptides using a reporter gene assay. The reporter gene assay is composed of NIH3T3 cells transfected with either MD2 or CD14 along with TLR4 and the NF-κB-inducible reporter gene Secreted Alkaline Phosphatase (SEAP) to monitor TLR4 activation (Burger-Kentischer et al. 2010, A new cell-based innate immune receptor assay for the examination of receptor activity, ligand specificity, signaling pathways and the detection of pyrogens. J Immunol Methods. 358(1-2): 93-103). […] The receptors are coupled to for the detection of inhibitory activity, cells were treated with the peptide prior to exposure to LPS and the response to LPS is measured at variable peptide doses (as labeled). […]
At Day 3: To determine the final SEAP value, 50 μl of the supernatant is carefully transferred in a new 96-well plate (Greiner-F-plate) and 50 μl of the substrate (pNPP; p-nitrophenyl phosphate) is added. SEAP catalyzes the hydrolysis of pNPP to the final product para-nitrophenol (yellow) which can be detected by a photometric analysis using an UV-VIS reader at 405 nm. […]

[1] = system: primary mouse macrophages (expressing TLR4, MD2 and CD14); experiment: TNF-a release from primary mouse macrophages exposed to LPS; settings: FIG. 7
Source text: (§1) The top graph presents TNF-a release from primary mouse macrophages exposed to LPS treated with either peptide SEQ ID No. 9 or a control peptide while the bottom graph presents TNF-a release from primary mouse macrophages exposed to PAM3 treated with either peptide SEQ ID No. 9 or a control peptide. […] This method had been previously described (Lerner et al. 2011, Heparanase powers a chronic inflammatory circuit that promotes colitis-associated tumorigenesis in mice. J Clin Invest. 121(5): 1709-1721).

TLR1/2 = molecular target: T2, TLR1/2 (Mus musculus, UniProt Q9EPQ1+Q9QUN7); experiment: TNF-a release from primary mouse macrophages exposed to PAM3; settings: primary mouse macrophages exposed to PAM3, FIG. 7
T2 construct: endogenous in cells; host or cells: primary mouse macrophages
T2 sequence (Q9EPQ1 26-795): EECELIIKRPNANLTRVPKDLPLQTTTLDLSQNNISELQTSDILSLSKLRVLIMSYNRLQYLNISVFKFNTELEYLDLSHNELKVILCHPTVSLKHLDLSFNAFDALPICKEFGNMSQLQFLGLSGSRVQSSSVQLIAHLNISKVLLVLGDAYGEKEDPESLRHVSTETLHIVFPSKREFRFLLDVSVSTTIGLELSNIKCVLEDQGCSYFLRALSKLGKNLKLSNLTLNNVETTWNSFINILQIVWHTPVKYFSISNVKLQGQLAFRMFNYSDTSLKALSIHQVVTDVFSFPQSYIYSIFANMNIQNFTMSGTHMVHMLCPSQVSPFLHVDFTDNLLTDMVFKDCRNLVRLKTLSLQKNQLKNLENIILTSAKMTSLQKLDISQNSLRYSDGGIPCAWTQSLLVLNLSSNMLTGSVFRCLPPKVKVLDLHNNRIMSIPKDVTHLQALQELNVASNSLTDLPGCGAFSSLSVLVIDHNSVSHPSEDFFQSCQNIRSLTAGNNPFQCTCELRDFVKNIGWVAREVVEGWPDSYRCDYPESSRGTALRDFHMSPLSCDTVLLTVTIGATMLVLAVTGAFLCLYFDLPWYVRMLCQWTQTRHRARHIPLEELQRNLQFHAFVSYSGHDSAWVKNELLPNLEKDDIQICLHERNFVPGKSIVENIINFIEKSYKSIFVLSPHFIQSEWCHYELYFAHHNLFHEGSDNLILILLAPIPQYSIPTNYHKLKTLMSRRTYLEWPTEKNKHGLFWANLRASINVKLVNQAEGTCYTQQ
T2 sequence (Q9QUN7 25-784): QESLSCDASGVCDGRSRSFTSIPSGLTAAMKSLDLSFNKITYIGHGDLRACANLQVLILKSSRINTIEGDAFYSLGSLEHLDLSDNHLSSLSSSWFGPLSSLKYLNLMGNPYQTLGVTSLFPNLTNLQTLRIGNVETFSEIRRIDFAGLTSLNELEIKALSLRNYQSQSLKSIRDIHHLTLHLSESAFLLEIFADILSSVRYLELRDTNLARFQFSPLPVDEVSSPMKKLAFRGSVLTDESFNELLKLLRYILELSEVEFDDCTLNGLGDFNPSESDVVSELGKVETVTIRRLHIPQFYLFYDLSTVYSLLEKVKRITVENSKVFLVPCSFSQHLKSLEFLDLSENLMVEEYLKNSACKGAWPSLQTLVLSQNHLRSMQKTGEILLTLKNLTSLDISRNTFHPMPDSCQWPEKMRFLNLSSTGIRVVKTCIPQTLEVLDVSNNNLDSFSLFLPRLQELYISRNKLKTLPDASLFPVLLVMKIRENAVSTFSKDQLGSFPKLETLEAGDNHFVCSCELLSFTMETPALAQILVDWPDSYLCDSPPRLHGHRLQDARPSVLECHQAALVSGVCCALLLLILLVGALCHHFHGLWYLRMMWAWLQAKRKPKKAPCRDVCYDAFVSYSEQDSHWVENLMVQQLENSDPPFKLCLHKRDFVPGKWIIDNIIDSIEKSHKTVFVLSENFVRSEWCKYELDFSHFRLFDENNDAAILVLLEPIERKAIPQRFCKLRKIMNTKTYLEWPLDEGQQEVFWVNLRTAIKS
Source text: as §1

ILFMGMKWL (Inhibitor) [SEQ ID No. 9]
inhibition of LPS mediated CD14-TLR4 activation (CD14-TLR4): inability of to inhibit | effect on LPS-induced TNF-a release [1]: inhibitory effect | effect on PAM3 induced TNF-a release (TLR1/2): no significant effect

Reference: patent US20200247849A1, “PEPTIDE AGONISTS AND ANTAGONISTS OF TLR4 ACTIVATION” (PEPTICOM LTD, priority 2016, published 2020)
